Measurements: PMC10466327

Biological target: glutathione S-transferase (GST)
Experiment: cross-linking; GST crosslinked in a crosslinker titration with UCCL or DSSO, two molar ratios of each reagent; crosslinked dimer seen (Figure 2c)

stoichiometry N: 2
Substance: glutathione S-transferase (GST) (enzyme)
